From patent US10472401B2, “Peptides and combination of peptides for use in immunotherapy against ovarian cancer and other cancers” (immatics biotechnologies GmbH, priority 2015, dated 2019)

target: HLA-A*02:01 (Homo sapiens, UniProt P04439, D140Y/D185E/D98H/E176V/E277Q/G131W/G231S/I119V/I121R/I166T/I218V/L300P/L318F/N151K/N90K/P208A/P217A/Q86G/Q94H/R138H/R169H/T345S); test: MHC binding assay (UV-ligand exchange, ELISA of stabilized MHC complexes); conditions: MHC class I binding score; binding to HLA-A*02:01 ranged by peptide exchange yield (UV-ligand exchange, ELISA)
Summary of the method: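 Binding scored as exchange yield, detected via β2m of stabilized complexes in an HRP/TMB ELISA read at 450 nm after streptavidin capture of 100-fold diluted monomers for 1 h at 37 °C. Complexes came from UV irradiation cleaving a photolabile peptide, exchanged for the candidate.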

Peptide exchange	Substance
″++″ (≥20% = ++)	461 (VMFRTPLASV; listed as Homo sapiens) [compound 461]
″++″ (≥20% = ++)	522 (TLWYRSPEV; listed as Homo sapiens) [compound 522]
″+++″ (≥50% = +++)	325 (FIMPATVADATAV; listed as Homo sapiens) [compound 325]
″+++″ (≥50% = +++)	367 (SLQNHNHQL; listed as Homo sapiens) [compound 367]
″+++″ (≥50% = +++)	244 (SLFGGTEITI; listed as Homo sapiens) [compound 244]
″+++″ (≥50% = +++)	96 (YIFTDNPAAV; listed as Homo sapiens) [compound 96]
″+++″ (≥50% = +++)	601 (SAFPFPVTV; listed as Homo sapiens) [compound 601]
″+++″ (≥50% = +++)	452 (ILLEHGADPNL; listed as Homo sapiens) [compound 452]
″++″ (≥20% = ++)	516 (AVGPASILKEV; listed as Homo sapiens) [compound 516]
″+++″ (≥50% = +++)	23 (VLLDDIFAQL; listed as Homo sapiens) [compound 23]
″++″ (≥20% = ++)	393 (GLLDTQTSQVLTA; listed as Homo sapiens) [compound 393]
″++″ (≥20% = ++)	209 (KLIESKHEV; listed as Homo sapiens) [compound 209]
″+++″ (≥50% = +++)	544 (LLWDVPAPSL; listed as Homo sapiens) [compound 544]
″+++″ (≥50% = +++)	583 (ILANDGVLLAA; listed as Homo sapiens) [compound 583]
″+++″ (≥50% = +++)	174 (ALAQYLITA; listed as Homo sapiens) [compound 174]
″++++″ (≥75% = ++++)	340 (ALLSMTFPL; listed as Homo sapiens) [compound 340]
″+++″ (≥50% = +++)	46 (ILTEENIHL; listed as Homo sapiens) [compound 46]
″++″ (≥20% = ++)	99 (ALVSKGLATV; listed as Homo sapiens) [compound 99]
″++″ (≥20% = ++)	87 (ALPEAPAPLLPHIT; listed as Homo sapiens) [compound 87]
″+++″ (≥50% = +++)	5 (HLTEVYPEL; listed as Homo sapiens) [compound 5]
″+++″ (≥50% = +++)	72 (SLLELDGINL; listed as Homo sapiens) [compound 72]
″+++″ (≥50% = +++)	484 (SLIEKVTQL; listed as Homo sapiens) [compound 484]
″+++″ (≥50% = +++)	407 (YLMDLINFL; listed as Homo sapiens) [compound 407]
″+++″ (≥50% = +++)	543 (GLLPTPITQQASL; listed as Homo sapiens) [compound 543]
″++++″ (≥75% = ++++)	108 (ALFPGVALLLA; listed as Homo sapiens) [compound 108]
″++++″ (≥75% = ++++)	621 (VLMDRLPSLL; listed as Homo sapiens) [compound 621]

Peptide exchange	Substance
″+++″ (≥50% = +++)	608 (SLLSVSHAL; listed as Homo sapiens) [compound 608]
″+++″ (≥50% = +++)	441 (ALLENPKMEL; listed as Homo sapiens) [compound 441]
″+++″ (≥50% = +++)	6 (VLVSDGVHSV; listed as Homo sapiens) [compound 6]
″+++″ (≥50% = +++)	161 (ALLEGVNTV; listed as Homo sapiens) [compound 161]
″++″ (≥20% = ++)	428 (KLGHTDILVGV; listed as Homo sapiens) [compound 428]
″+++″ (≥50% = +++)	508 (ILAQEQLVVGV; listed as Homo sapiens) [compound 508]
″+++″ (≥50% = +++)	558 (GLLENIPRV; listed as Homo sapiens) [compound 558]
″+++″ (≥50% = +++)	85 (KMSELRVTL; listed as Homo sapiens) [compound 85]
″+++″ (≥50% = +++)	17 (GLLPGDRLVSV; listed as Homo sapiens) [compound 17]
″+++″ (≥50% = +++)	54 (SLLEQGKEPWMV; listed as Homo sapiens) [compound 54]
″+++″ (≥50% = +++)	314 (ALIAEGIALV; listed as Homo sapiens) [compound 314]
″+++″ (≥50% = +++)	206 (VLQEGKLQKLAQL; listed as Homo sapiens) [compound 206]
″+++″ (≥50% = +++)	623 (YLVEDIQHI; listed as Homo sapiens) [compound 623]
″+++″ (≥50% = +++)	350 (ALLDVTHSELTV; listed as Homo sapiens) [compound 350]
″+++″ (≥50% = +++)	495 (FIFSEKPVFV; listed as Homo sapiens) [compound 495]
″++″ (≥20% = ++)	524 (ALIENLTHQI; listed as Homo sapiens) [compound 524]
″++″ (≥20% = ++)	409 (LLDAMNYHL; listed as Homo sapiens) [compound 409]
″++″ (≥20% = ++)	18 (YLVAKLVEV; listed as Homo sapiens) [compound 18]
″++″ (≥20% = ++)	81 (FLFSQLQYL; listed as Homo sapiens) [compound 81]
″++++″ (≥75% = ++++)	51 (LLPDLEFYV; listed as Homo sapiens) [compound 51]
″++″ (≥20% = ++)	385 (SLLEQGLVEA; listed as Homo sapiens) [compound 385]
″++″ (≥20% = ++)	234 (ALMEDTGRQML; listed as Homo sapiens) [compound 234]
″+++″ (≥50% = +++)	388 (SLTIDGIRYV; listed as Homo sapiens) [compound 388]
″++″ (≥20% = ++)	318 (GLINTGVLSV; listed as Homo sapiens) [compound 318]
″+++″ (≥50% = +++)	464 (ALNDCIYSV; listed as Homo sapiens) [compound 464]
″+++″ (≥50% = +++)	181 (LLWAGTAFQV; listed as Homo sapiens) [compound 181]

Peptide exchange	Substance
″++″ (≥20% = ++)	146 (SLATAGDGLIEL; listed as Homo sapiens) [compound 146]
″+++″ (≥50% = +++)	13 (YLMDESLNL; listed as Homo sapiens) [compound 13]
″+++″ (≥50% = +++)	560 (ALWDIETGQQTTT; listed as Homo sapiens) [compound 560]
″+++″ (≥50% = +++)	457 (SLLPGNLVEKV; listed as Homo sapiens) [compound 457]
″+++″ (≥50% = +++)	547 (TLDITPHTV; listed as Homo sapiens) [compound 547]
″++″ (≥20% = ++)	579 (NLMEMVAQL; listed as Homo sapiens) [compound 579]
″+++″ (≥50% = +++)	616 (VLIDEVESL; listed as Homo sapiens) [compound 616]
″+++″ (≥50% = +++)	370 (SLLQDLVSV; listed as Homo sapiens) [compound 370]
″+++″ (≥50% = +++)	493 (GLLGEKTQDLIGV; listed as Homo sapiens) [compound 493]
″++″ (≥20% = ++)	380 (TLIEDEIATI; listed as Homo sapiens) [compound 380]
″+++″ (≥50% = +++)	346 (LLDSKVPSV; listed as Homo sapiens) [compound 346]
″+++″ (≥50% = +++)	550 (FLYDEIEAEVNL; listed as Homo sapiens) [compound 550]
″+++″ (≥50% = +++)	433 (AMLNEPWAV; listed as Homo sapiens) [compound 433]
″++++″ (≥75% = ++++)	527 (FLLEPGNLEV; listed as Homo sapiens) [compound 527]
″+++″ (≥50% = +++)	326 (FLPEALDFV; listed as Homo sapiens) [compound 326]
″++″ (≥20% = ++)	121 (GVVDPRAISVL; listed as Homo sapiens) [compound 121]
″+++″ (≥50% = +++)	486 (AVMESIQGV; listed as Homo sapiens) [compound 486]
″+++″ (≥50% = +++)	73 (NIFDLQIYV; listed as Homo sapiens) [compound 73]
″+++″ (≥50% = +++)	286 (YLFPGIPEL; listed as Homo sapiens) [compound 286]
″+++″ (≥50% = +++)	254 (TLLAFIMEL; listed as Homo sapiens) [compound 254]
″+++″ (≥50% = +++)	517 (LLMPIPEGLTL; listed as Homo sapiens) [compound 517]
″+++″ (≥50% = +++)	136 (YLADPSNLFVV; listed as Homo sapiens) [compound 136]
″+++″ (≥50% = +++)	330 (QLALKVEGV; listed as Homo sapiens) [compound 330]
″+++″ (≥50% = +++)	597 (KLLEGQVIQL; listed as Homo sapiens) [compound 597]
″+++″ (≥50% = +++)	280 (VLPDPEVLEAV; listed as Homo sapiens) [compound 280]
